Test results published in patent US20240368549A1, “ENHANCEMENT OF HEMATOPOIETIC STEM CELL AND HEMATOPOIETIC PROGENITOR CELL EXPANSION WITH AGENTS THAT ACTIVATE TAM RECEPTORS” (CANADIAN BLOOD SERVICES, priority 2021, published 2024).
Entries after “also recorded” stand apart in the source; their conditions may differ.

Experiments:
[1] = test system: Umbilical cord blood (UCB) CD34+ cells; assay: Expansion of UCB CD34+ cells cultured 14 days with SCACs, GAS6 or inhibitors; assay type: cell-based, human
Description: (§1) Umbilical cord blood (UCB) CD34+ cells were cultured in StemSpan™ SFEM (StemCell Technologies) in the presence of different SCACs for 14-days and net fold expansion of TNC, CD34+ cells CD34+CD45RA− cells, and EPCR^High was calculated based on respective population on day-0 (e.g. net TNC day 14/TNC day 0). Control STFL cultures consisted of the same complete media without small molecules. Unless indicated otherwise, all cultures were supplemented with Stem Cell Factor, Flt-3 and Thrombopoietin at 100 ng/ml. All cultures also contained 10 μg/mL low-density lipoprotein (LDL, Stem Ce, Technologies) and 1% penicillin-streptomycin (Gibco). […] The improvement in HSPC expansion provided by the SCACs is exemplified with X2A in FIGS. 2A-2D. […] Culture done with adult CD34+ mobilized peripheral blood stem cells (mPBSC, CAT #70060.2, Stem Cell Technologies) also contained IL-6 (100 ng/ml) as additional cytokine (FIG. 9).
To investigate the impact of AA2P and/or SCACs on expression of AXL and its activation level, HSPC were culture in STFL with or without AA2P or the indicated SCAC for 14 days (FIG. 4F). In some cultures, the AXL kinase inhibitor Bemcentinib or a neutralizing antibody was added to cultures at day 10, and the impact on HSPC expansion was investigated in indicated cultures at day 14. Proteins level were investigated by western blot analysis or intracellular flowcytometry analysis following common procedures with anti-AXL [Goat IgG anti-AXL (Cat #AF154) or anti-p-AXL (Cat #AF2228) or anti-GAS6 (rabbit IgG, Cat #67202S, Cell Signaling Tech.) and appropriate secondary antibodies, R&D systems). […] AXL is expressed by CD34+CD45RA− HSPCs cultured in both X2A and C6 culture (FIG. 5A). […] This support that, even in the absence of exogenous GAS6 , AA2P alone or in combination with other small molecule (i.e. stem cell agonist such as UM171, SR1 . . . ) is capable of driving enough increased endogenous expression of GAS6 and AXL to support the improved expansion of CD34+CD45RA− HSPCs through para-and/or autocrine activation of AXL on HSPCs.
(§2) In each case, GAS6 was added to the cultures from days 7 to 14.
Cell expansion measured after 14 days of culture in STFL culture (FIG. 7A) and in X2A cultures (FIG. 7B). Indeed, as shown therein, the rise in cell growth (TNC) and expansion of HSPC subsets (CD34+ cells, CD34+CD45RA−, EPCRHigh cells) induced by GAS6 can be accomplished by adding GAS6 in cultures at various time point, as early as day 0 and as late as day 10, preferably at day 7.

[2] = test system: CD34+ mobilized peripheral blood stem cells (mPBSC); assay: Expansion of adult mobilized peripheral blood stem cell (mPBSC) cultures; assay type: cell-based, human; settings: GAS6 10 ng/ml, day 7 to 14; STFL and SCAC cultures
Description: as §1, §2

[3] = test system: NSG mice; assay: Engraftment in NSG mice of X2A-expanded cells with GAS6 or GAS6 neutralizing antibody; assay type: in vivo
Description: Mice group were transplanted with the progeny of 750 expanded CD34+ cells after 14 days of culture. The groups were; […]-expanded cells, […]-expanded cells supplemented with GAS6 (10 ng/ml) or a GAS6 neutralizing antibody (GAS6 Ab) from day-10 to day-14. As shown therein, addition of GAS6 to CB HSPC expansion cultures improves the engraftment achieved from the ex vivo expanded HSPCs.

Molecule: Nc1nc(Nc2ccc3c(c2)CC[C@@H](N2CCCC2)CC3)nn1-c1cc2c(nn1)-c1ccccc1CCC2 [Bemcentinib, reference compound]
- effect of AXL kinase inhibition on ability of X2A and C6 to expand HSPCs ([1]; added at day 10, read at day 14, normalized to DMSO): reduction; also recorded: decreased

Molecule: Nc1nc(=O)n(-c2cccc(-c3ccccc3)c2)cc1Cl [Bobcat339, reference compound]
- effect of TET inhibition on cell growth ([1]; 30 μM, day-10 to day-14): reduced cell growth

B1: GAS6: natural ligand of the AXL receptor, growth arrest-specific protein 6, added to cultures at 10 ng/mL (protein, UniProt Q14393 31-678, looked up)
Growth arrest-specific …: ALLPAREATQFLRPRQRRAFQVFEEAKQGHLERECVEELCSREEAREVFENDPETDYFYPRYLDCINKYGSPYTKNSGFATCVQNLPDQCTPNPCDRKGTQACQDLMGNFFCLCKAGWGGRLCDKDVNECSQENGGCLQICHNKPGSFHCSCHSGFELSSDGRTCQDIDECADSEACGEARCKNLPGSYSCLCDEGFAYSSQEKACRDVDECLQGRCEQVCVNSPGSYTCHCDGRGGLKLSQDMDTCEDILPCVPFSVAKSVKSLYLGRMFSGTPVIRLRFKRLQPTRLVAEFDFRTFDPEGILLFAGGHQDSTWIVLALRAGRLELQLRYNGVGRVTSSGPVINHGMWQTISVEELARNLVIKVNRDAVMKIAVAGDLFQPERGLYHLNLTVGGIPFHEKDLVQPINPRLDGCMRSWNWLNGEDTTIQETVKVNTRMQCFSVTERGSFYPGSGFAFYSLDYMRTPLDVGTESTWEVEVVAHIRPAADTGVLFALWAPDLRAVPLSVALVDYHSTKKLKKQLVVLAVEHTALALMEIKVCDGQEHVVTVSLRDGEATLEVDGTRGQSEVSAAQLQERLAVLERHLRSPVLTFAGGLPDVPVTSAPVTAFYRGCMTLEVNRRLLDLDEAAYKHSDITAHSCPPVEPAAA
- expansion of TNC and HSPC subsets in mPBSC cultures with GAS6 [2]: further increased
- levels of human platelets and human % CD45+ leucocytes ([3]; X2A cultures + GAS6 10 ng/ml, 3-weeks and 16-weeks post-transplant): significantly superior
- long-term human BM engraftment (% CD45+) ([3]; X2A cultures, 18-weeks after transplantation): improved
- distribution of human lineages downstream HSC ([3]; X2A+ GAS6 group, BM): normal distribution
- proportion of CD34+ HSPC ([3]; X2A+ GAS6 mice, BM): significantly superior
- human CFU ([3]; X2A+ GAS6 primary transplants): significantly superior
- net number of human CD34+ BM cells ([3]; X2A+ GAS6 primary transplants): significantly superior
- serial engraftment activity in secondary transplants ([3]; primary X2A+ GAS6 grafts vs X2A grafts, 12-weeks): superior serial engraftment activity
- HSPC expansion with GAS6 in X2A, X2B, STFL or SM6 culture ([1]; FIGS. 5D-5F): improved HSPC expansion
- expansion of TNC and HSPC subsets, valproic acid (VPA)-containing cultures ([1]; GAS6 10 ng/mL, days 7 to 14): improved
- expansion of the CB HSPC population, GAS6 with single stem cell agonists or agonist cocktails ([1]; GAS6 10 ng/mL, days 7 to 14): strongly increases
- expansion of HSPC subsets, control STFL cultures ([1]; GAS6 10 ng/ml, days 7 to 14): improved
- expansion of TNC and HSPC subsets, AA2P-containing cultures ([1]; GAS6 10 ng/ml, days 7 to 14): improved
- expansion of TNC and HSPC subsets, C6-containing cultures ([1]; GAS6 10 ng/ml, days 7 to 14): improved
- expansion of TNC and HSPC subsets, SM6-containing cultures ([1]; GAS6 10 ng/ml, days 7 to 14): improved
- expansion of TNC and HSPC subsets, SR1-containing cultures ([1]; GAS6 10 ng/ml, days 7 to 14): improved
- expansion of TNC and HSPC subsets, UM171-containing cultures ([1]; GAS6 10 ng/ml, days 7 to 14): improved
- expansion of TNC and HSPC subsets, X2A-containing cultures ([1]; GAS6 10 ng/ml, days 7 to 14): improved
- expansion of CB TNC and HSPC subsets, GAS6 added at different time point ([1]; added day 0, 4, 7 or 10, STFL with or without X2A, day 14): superior expansion
- HSPC expansion, exogenous GAS6 added to SCAC and C6 cultures ([1]; compared to SCACs and C6 alone, 10 ng/mL): further improved HSPC expansion
